Laboratory results taken from PMC2062912.

Target: recombinant avidin (hen) (UniProt P02701)
Test: SEC + other: electrophoresis; purified renatured rec-AV alone; conditions not given; details referred to Shin et al, 1997

stoichiometry N: 4
Substance: recombinant avidin (from UniProt P02701 25-152) (natural protein)
